In PMC10540217, “Native Semisynthesis of Isopeptide-Linked Substrates for Specificity Analysis of Deubiquitinases and Ubl Proteases” (Journal of the American Chemical Society, 2023):

Molecular target: SUMO2-KG-TAMRA (human, UniProt P61956 1-95, C-terminal glycine linked by an isopeptide bond to the lysine side chain of the KG-TAMRA peptide)
Assay: cell-based or functional assay

Chain of SUMO2-KG-TAMRA (P61956 whole entry): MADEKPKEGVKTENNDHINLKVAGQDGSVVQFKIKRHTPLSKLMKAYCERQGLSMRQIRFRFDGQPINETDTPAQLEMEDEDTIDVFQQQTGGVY

B1: USPL1 catalytic domain (enzyme, human, UniProt Q5W0Q7 227-500, looked up)
chain: VQWKNAYALCWLDCILSALVHSEELKNTVTGLCSKEESIFWRLLTKYNQANTLLYTSQLSGVKDGDCKKLTSEIFAEIETCLNEVRDEIFISLQPQLRCTLGDMESPVFAFPLLLKLETHIEKLFLYSFSWDFECSQCGHQYQNRHMKSLVTFTNVIPEWHPLNAAHFGPCNNCNSKSQIRKMVLEKVSPIFMLHFVEGLPQNDLQHYAFHFEGCLYQITSVIQYRANNHFITWILDADGSWLECDDLKGPCSERHKKFEVPASEIHIVIWERK
- catalytic efficiency in the fluorescence-polarization cleavage assay, SUMO2-KG-TAMRA against SUMO1-KG-TAMRA: ~25 fold
